# Data as given in patent US20250026849A1 (ARCELLX, published 2025).
# Numbering of substitutions follows the chain as printed.
# B1: D domain of SEQ ID NO: 356 (designed binder)
# chain: MGSWTEFYYRLEAIEDRLWALGGSEAELAAFEKEIAAFESELQAYKGKGNPEVEFLRVEAANIRDMLQAYRHN
# B2: D domain of SEQ ID NO: 442 (designed binder)
# chain: MGSWVEFHMRLDAIYERLDALGGSEAELAAFEKEIAAFESELQAYKGKGNPEVEWLRTAAANIRVELQAYRHN
# B3: D domain of SEQ ID NO: 454 (designed binder)
# chain: B2 chain with V5N, H8A, M9W, E16S, D19A, T58V, V65Y
# B4: D domain of SEQ ID NO: 452 (designed binder)
# chain: B2 chain with V5T, H8N, M9L, E16G, D19S, W55F, T58A
# B5: D domain of SEQ ID NO: 438 (designed binder)
# chain: B2 chain with V5Y, M9H, D19L, T58S, A59S, V65K
# B6: D domain of SEQ ID NO: 436 (designed binder)
# chain: B2 chain with V5S, H8N, D19T, T58H, A59S, N62L, V65L
# B7: D domain of SEQ ID NO: 444 (designed binder)
# chain: B2 chain with V5N, H8V, M9I, D19L, W55Y, T58M, V65M
# B8: D domain of SEQ ID NO: 446 (designed binder)
# chain: B2 chain with V5S, M9V, E16A, W55R, T58E, A59W, V65R
# B9: D domain of SEQ ID NO: 447 (designed binder)
# chain: B2 chain with M9L, E16G, D19M, W55N, T58V, A59W, V65N
# B10: D domain of SEQ ID NO: 455 (designed binder)
# chain: B2 chain with V5T, H8A, M9W, E16D, D19L, T58H, A59V, V65R
# B11: D domain of SEQ ID NO: 449 (designed binder)
# chain: B2 chain with H8N, M9I, D19Y, W55K, T58H, A59W, N62S, V65R
# B12: D domain of SEQ ID NO: 357 (designed binder)
# chain: B1 chain with T5Y, Y8V, Y9I, F55V, V58W, E59Y, N62D, D65H, M66E
# B13: D domain of SEQ ID NO: 453 (designed binder)
# chain: B2 chain with H8N, M9W, E16D, D19V, T58V, A59S, N62K, V65G
# B14: D domain of SEQ ID NO: 445 (designed binder)
# chain: MGSWSEFYVRVDAIYARLSALGGSEAELAAFEKEIAAFESELQAYKGKGNPEVEKLRVWAANIRHELQAYRHN
# B15: D domain of SEQ ID NO: 439 (designed binder)
# chain: B2 chain with V5Y, H8A, M9K, D19V, T58S, A59S, V65E
# B16: D domain of SEQ ID NO: 457 (designed binder)
# chain: B14 chain with S5V, V9I, V11L, A16V, S19M, V58S, W59Y, H65Q
# B17: D domain of SEQ ID NO: 443 (designed binder)
# chain: B14 chain with S5Y, Y8A, V9I, V11L, A16E, S19H, K55Y, H65T
# B18: D domain of SEQ ID NO: 458 (designed binder)
# chain: B2 chain with V5Y, H8S, E16D, D19M, W55Q, T58G, A59Y, V65N
# B19: D domain of SEQ ID NO: 451 (designed binder)
# chain: B2 chain with V5T, H8N, M9L, E16D, D19M, T58A, A59S, N62A
# B20: D domain of SEQ ID NO: 448 (designed binder)
# chain: B2 chain with H8E, Y15V, E16G, D19Y, W55K, T58R, A59W, V65S
# B21: D domain of SEQ ID NO: 450 (designed binder)
# chain: B2 chain with V5H, H8G, M9V, E16D, D19M, W55F, T58Q, V65S
# B22: D domain of SEQ ID NO: 359 (designed binder)
# chain: MGSWTEFSIRLEAIYDRLVALGGSEAELAAFEKEIAAFESELQAYKGKGNPEVEVLRTYAAFIRHELQAYRHN
# B23: D domain of SEQ ID NO: 456 (designed binder)
# chain: B22 chain with T5V, E12D, D16T, V55M, T58K, Y59G, F62N, H65K
# B24: D domain of SEQ ID NO: 358 (designed binder)
# chain: B22 chain with F62N
# B25: D domain of SEQ ID NO: 459 (designed binder)
# chain: B22 chain with T5V, S8I, I9Y, E12D, V19E, T58R, F62N, H65N
# B26: D domain of SEQ ID NO: 440 (designed binder)
# chain: B2 chain with V5T, H8Y, M9V, T58M, A59V, V65T
# B27: D domain of SEQ ID NO: 435 (designed binder)
# chain: B2 chain with V5S, H8N, D19T, T58H, A59S, N62R, V65L
# B28: D domain of SEQ ID NO: 460 (designed binder)
# chain: B14 chain with S5I, Y8E, V11L, A16N, S19A, K55R, V58R, W59Y
# B29: D domain of SEQ ID NO: 437 (designed binder)
# chain: B2 chain with V5I, H8N, D19V, T58K, A59V, V65L
# B30: D domain of SEQ ID NO: 441 (designed binder)
# chain: B2 chain with H8Y, M9T, E16G, T58Q, A59V, V65M
# B31: D domain of SEQ ID NO: 351 (designed binder)
# chain: MGSWVEFWFRLEAIDSRLWALGGSEAELAAFEKEIAAFESELQAYKGKGNPEVEWLREEAAAIREDLQAYRHN
# B32: D domain of SEQ ID NO: 350 (designed binder)
# chain: B1 chain with T5A, Y8E, Y9D, E12W, F55Y, V58E, N62A, D65F, M66E
# B33: D domain of SEQ ID NO: 362 (designed binder)
# chain: B31 chain with W8H, F9D, D15E, S16D, W19Y, E59D, A62Y, E65S, D66I
# B34: D domain of SEQ ID NO: 397 (designed binder)
# chain: B2 chain with H8D, M9Q, D19Y, T58D, A59E, N62E, V65E, E66H
# B35: D domain of SEQ ID NO: 414 (designed binder)
# chain: B31 chain with V5F, W8H, F9D, E12W, S16E, W55I, A62D, E65L
# B36: D domain of SEQ ID NO: 364 (designed binder)
# chain: B31 chain with W8D, F9Q, D15Y, S16D, W19Y, E59D, A62Q, E65K, D66W
# B37: D domain of SEQ ID NO: 412 (designed binder)
# chain: B31 chain with V5F, F9D, D15W, S16E, W19D, W55E, E58R, A62I
# B38: D domain of SEQ ID NO: 349 (designed binder)
# chain: B1 chain with Y8H, Y9D, E15D, F55Y, V58E, N62Q, D65W, M66E
# B39: D domain of SEQ ID NO: 405 (designed binder)
# chain: MGSWDEFVDRLWAIEERLWALGGSEAELAAFEKEIAAFESELQAYKGKGNPEVEELRIQAAIIREALQAYRHN
# B40: D domain of SEQ ID NO: 361 (designed binder)
# chain: MGSWVEFHERLEAIEDRLMALGGSEAELAAFEKEIAAFESELQAYKGKGNPEVEYLREDAAFIRQLLQAYRHN
# B41: D domain of SEQ ID NO: 401 (designed binder)
# chain: B39 chain with D5Y, V8Y, D9E, W12D, E55V, I58D, Q59W, I62W, A66D
# B42: D domain of SEQ ID NO: 415 (designed binder)
# chain: B39 chain with D5Y, V8E, E15D, E16N, I58V, Q59H, I62D, E65D, A66D
# B43: D domain of SEQ ID NO: 396 (designed binder)
# chain: B2 chain with H8D, D12S, Y15W, D19I, T58E, A59D, N62E, V65E, E66F
# B44: D domain of SEQ ID NO: 403 (designed binder)
# chain: MGSWYEFWDRLDALEDRLWALGGSEAELAAFEKEIAAFESELQAYKGKGNPEVEYLRDSAAFIREELQAYRHN
# B45: D domain of SEQ ID NO: 413 (designed binder)
# chain: B31 chain with V5F, W8E, F9D, D15Y, S16Q, W19D, E58D, A62W, E65S
# B46: D domain of SEQ ID NO: 353 (designed binder)
# chain: B1 chain with T5S, Y8W, Y9Q, F55W, V58E, E59N, N62M, M66E
# B47: D domain of SEQ ID NO: 416 (designed binder)
# chain: B39 chain with D5F, V8Q, E15D, E16N, I58D, Q59H, I62M, E65W, A66E
# B48: D domain of SEQ ID NO: 363 (designed binder)
# chain: B40 chain with V5I, H8Y, E9D, E15Y, M19D, Y55W, Q65S, L66W
# B49: D domain of SEQ ID NO: 354 (designed binder)
# chain: B31 chain with V5S, W8I, F9T, S16D, W55I, A62E, E65Q, D66H
# B50: D domain of SEQ ID NO: 355 (designed binder)
# chain: B1 chain with T5Y, Y8E, Y9T, E15Y, F55L, N62E, D65E, M66D
# B51: D domain of SEQ ID NO: 400 (designed binder)
# chain: B31 chain with W8Y, F9S, E12D, D15E, S16D, E58I, E59A, A62S
# B52: D domain of SEQ ID NO: 365 (designed binder)
# chain: B40 chain with E9D, M19L, Y55D, D59Y, F62G, Q65W, L66F
# B53: D domain of SEQ ID NO: 352 (designed binder)
# chain: B31 chain with F9Q, D15E, W55F, A62E, E65W, D66E
# B54: D domain of SEQ ID NO: 402 (designed binder)
# chain: B39 chain with D5F, V8D, E16N, E55V, I58D, Q59N, I62W, A66I
# B55: D domain of SEQ ID NO: 430 (designed binder)
# chain: B31 chain with V5M, W8E, F9E, E12W, E58S, A62W, E65M, D66E
# B56: D domain of SEQ ID NO: 404 (designed binder)
# chain: B39 chain with D5M, W12D, E16S, E55W, Q59E, I62F, A66E
# Molecular target: T1, CD123 (Homo sapiens (Human), UniProt P26951 19-305, limits assumed)
# T1 construct: The CD123 construct used in the ELISA is not described; also called CD123-Signal
# T1 sequence: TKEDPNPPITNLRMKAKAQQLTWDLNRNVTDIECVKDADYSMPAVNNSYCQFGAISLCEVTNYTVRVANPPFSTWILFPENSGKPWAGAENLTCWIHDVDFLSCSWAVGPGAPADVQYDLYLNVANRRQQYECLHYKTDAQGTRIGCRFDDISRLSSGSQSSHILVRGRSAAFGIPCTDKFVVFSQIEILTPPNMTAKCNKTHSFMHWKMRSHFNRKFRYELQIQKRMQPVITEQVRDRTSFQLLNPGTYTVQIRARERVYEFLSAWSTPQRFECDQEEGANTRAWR
# Experiment: ELISA
# Set-up: unit not given here
row,ELISA_avg,Binder
1,7.5,B1
2,9.1,B2
3,17.7,B3
4,19.3,B4
5,11.9,B5
6,11.4,B6
7,16.6,B7
8,14.4,B8
9,17.5,B9
10,16.1,B10
11,13.4,B11
12,6.4,B12
13,9.3,B13
14,14.7,B14
15,15.3,B15
16,16.1,B16
17,25.5,B17
18,13,B18
19,14.4,B19

row,ELISA_avg,Binder
1,25.3,B20
2,15.6,B21
3,10.2,B22
4,15.1,B23
5,11.9,B24
6,17,B25
7,16,B26
8,13.7,B27
9,20.8,B28
10,11.4,B29
11,14.4,B30
12,3.2,B31
13,6.2,B32
14,4.6,B33
15,10.5,B34
16,3.5,B35
17,5.1,B36
18,10.3,B37
19,5.8,B38

row,ELISA_avg,Binder
1,6,B39
2,3.7,B40
3,8.4,B41
4,4.9,B42
5,3.3,B43
6,9.7,B44
7,5.5,B45
8,4.7,B46
9,3.2,B47
10,7.5,B48
11,3.3,B49
12,3.2,B50
13,9.4,B51
14,3.3,B52
15,7.7,B53
16,4.2,B54
17,3.2,B55
18,5.8,B56
